In assay [1] the target is T1, recombinant soluble human MICA*008 antigen (human, UniProt Q29983 24-307).
T1 construct: also called huIMICA-his allele *008; recombinant soluble MICA (allele 8)
T1 chain: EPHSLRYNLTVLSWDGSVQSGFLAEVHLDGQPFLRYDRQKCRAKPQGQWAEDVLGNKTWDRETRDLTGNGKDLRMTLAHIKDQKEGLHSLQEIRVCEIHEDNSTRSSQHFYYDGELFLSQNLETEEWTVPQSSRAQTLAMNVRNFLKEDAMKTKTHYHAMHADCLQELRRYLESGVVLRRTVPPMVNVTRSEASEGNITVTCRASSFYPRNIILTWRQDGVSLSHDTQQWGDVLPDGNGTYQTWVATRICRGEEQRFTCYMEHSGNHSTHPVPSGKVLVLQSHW
Description: BLI (Octet) sandwich binning on soluble MICA allele 8, row antibody captured; competitor (second antibody): MICA.40. The procedure:
(§1) The binning experiments were performed on an Octet HTX instrument at 25° C. in HEPES buffered saline (10 mM HEPES pH 7.4, 150 mM NaCl, 0.05% v/v surfactant P20, and 1 mg/mL BSA). Anti-MICA/B antibodies and NKG2D-mFc were captured on anti-Fc tips and remaining capture sites were blocked with an excess of negative control IgG. Recombinant soluble MICA (allele 8) was bound and subsequent binding (“sandwiching”) of anti-MICA/B antibodies was tested.

Assay [2] addresses T1, recombinant soluble human MICA*008 …. Description: BLI (Octet) sandwich binning on soluble MICA allele 8, row antibody captured; competitor (second antibody): MICA.39. On the procedure:
as §1

Assay [3] has as its target T2, human MICA*010 expressed on CHO cells (human, UniProt Q29983 24-383).
T2 construct: also called MICA allele 010
T2 chain: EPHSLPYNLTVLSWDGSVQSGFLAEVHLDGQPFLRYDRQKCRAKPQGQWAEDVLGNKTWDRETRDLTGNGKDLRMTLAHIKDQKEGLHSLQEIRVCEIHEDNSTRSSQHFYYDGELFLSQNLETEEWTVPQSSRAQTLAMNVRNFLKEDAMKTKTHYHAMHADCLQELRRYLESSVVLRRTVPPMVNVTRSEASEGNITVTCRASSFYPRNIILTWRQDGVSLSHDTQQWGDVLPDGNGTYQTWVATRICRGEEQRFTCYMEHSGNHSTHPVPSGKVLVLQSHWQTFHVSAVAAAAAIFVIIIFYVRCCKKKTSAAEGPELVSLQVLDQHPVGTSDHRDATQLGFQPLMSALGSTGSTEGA
Kind of assay: flow cytometry, transfected CHO cells.

In assay [4] the target is T3, cynomolgus monkey MICA/B clone #6 expressed on CHO cells (cynomolgus monkey).
T3 construct: whole, on cells; also called cyno#6; CHO-cyno MICA clone #6
Description: flow cytometry, transfected CHO cells.

In assay [5] the target is T4, human MICA*009 expressed on CHO cells (human, UniProt Q29983 24-382).
T4 construct: also called MICA allele 009
T4 chain: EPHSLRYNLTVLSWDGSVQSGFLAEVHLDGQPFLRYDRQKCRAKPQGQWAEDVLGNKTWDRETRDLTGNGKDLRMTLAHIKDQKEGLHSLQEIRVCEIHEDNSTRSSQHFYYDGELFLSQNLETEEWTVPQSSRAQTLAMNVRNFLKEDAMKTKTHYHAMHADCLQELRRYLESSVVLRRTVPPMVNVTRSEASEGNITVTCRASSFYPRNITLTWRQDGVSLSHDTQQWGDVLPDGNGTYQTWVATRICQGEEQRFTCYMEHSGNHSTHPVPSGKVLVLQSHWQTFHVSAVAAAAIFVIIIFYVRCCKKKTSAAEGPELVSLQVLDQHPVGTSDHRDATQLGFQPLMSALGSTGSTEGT
Description: flow cytometry, transfected CHO cells.

The target in assay [6] is T5, human MICA*002 expressed on CHO cells (human, UniProt Q29983 24-382).
T5 construct: also called MICA allele 002
T5 chain: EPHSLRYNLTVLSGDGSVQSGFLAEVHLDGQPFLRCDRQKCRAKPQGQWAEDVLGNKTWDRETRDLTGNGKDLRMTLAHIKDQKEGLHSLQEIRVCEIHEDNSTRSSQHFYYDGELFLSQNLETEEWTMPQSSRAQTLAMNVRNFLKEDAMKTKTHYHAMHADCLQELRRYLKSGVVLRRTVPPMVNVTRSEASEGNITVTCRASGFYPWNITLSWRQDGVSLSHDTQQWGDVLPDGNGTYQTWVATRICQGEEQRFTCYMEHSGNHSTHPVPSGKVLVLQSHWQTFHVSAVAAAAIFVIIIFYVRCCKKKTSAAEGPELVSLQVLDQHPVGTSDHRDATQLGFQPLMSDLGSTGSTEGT
Kind of assay: flow cytometry, transfected CHO cells.

Assay [7] deals with T6, cynomolgus monkey MICA/B clone #4 expressed on CHO cells (cynomolgus monkey).
T6 construct: whole, on cells; also called cyno#4; CHO-cyno MICA clone #4
Kind of assay: flow cytometry, transfected CHO cells.

In assay [8] the target is T7, human MICA*008 expressed on CHO cells (human, UniProt Q29983 24-331).
T7 construct: also called MICA allele 008
T7 chain: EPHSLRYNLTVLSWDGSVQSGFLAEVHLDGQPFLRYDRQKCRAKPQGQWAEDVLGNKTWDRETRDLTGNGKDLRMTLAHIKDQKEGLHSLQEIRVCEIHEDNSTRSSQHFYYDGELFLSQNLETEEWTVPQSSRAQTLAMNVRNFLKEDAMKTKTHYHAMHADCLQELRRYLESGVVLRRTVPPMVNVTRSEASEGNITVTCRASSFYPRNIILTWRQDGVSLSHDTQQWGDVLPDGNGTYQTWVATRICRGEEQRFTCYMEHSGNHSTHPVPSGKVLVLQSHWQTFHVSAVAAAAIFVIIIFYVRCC
Kind of assay: flow cytometry, transfected CHO cells.

Assay [9] concerns the target T8, human MICB expressed on transduced cells (human, UniProt Q29980 23-382).
T8 construct: also called MICB*005
T8 chain: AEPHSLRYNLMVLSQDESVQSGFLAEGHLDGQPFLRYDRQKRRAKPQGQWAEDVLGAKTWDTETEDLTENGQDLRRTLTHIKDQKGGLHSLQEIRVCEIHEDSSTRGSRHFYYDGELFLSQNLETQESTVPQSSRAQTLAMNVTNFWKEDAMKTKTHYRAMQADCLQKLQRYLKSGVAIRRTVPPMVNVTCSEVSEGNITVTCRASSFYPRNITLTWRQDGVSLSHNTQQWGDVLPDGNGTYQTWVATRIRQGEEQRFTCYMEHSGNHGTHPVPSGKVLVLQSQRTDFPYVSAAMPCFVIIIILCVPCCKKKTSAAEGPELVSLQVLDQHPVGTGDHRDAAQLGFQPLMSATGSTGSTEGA
Description: flow cytometry, transfected CHO cells.

B1: MICA.36 (antibody, V domains shown)
VH: QVQLVESGGGVVQPGRSLRLSCAASGFTFSNYAMHWVRQAPGEGLEWVALIWYDGSNKFYGDSVKGRFTISRDNSKNTLYLQMNSLSAEDTAVYYCAREGSGHYWGQGTLVTVSS
VL: AIQLTQSPSSLSASVGDRVTITCRASQGISSALAWYQQKPGKVPKSLIYDASSLESGVPSRFSGSGSGTDFTLTISSLQPEDFATYYCQQFNSYPITFGQGTRLEIK
notes: it says that the name implies no specific constant region; Radioiodinated in the Scatchard assay; also called MICA.36 antibody
Take B1: the “simultaneous binding (0 = no, 1 = yes)” value in assay [1] and in [2] was 1 each time.

B2: 19G6 (antibody, V domains shown)
VH: QVQLVESGGGVVQPGRSLRLSCAASGFTFSNYAMHWVRQAPGEGLEWVALIWYDGSNKFYGDSVKGRFTISRDNSKNTLYLQMNSLSAEDTAVYYCAREGSGHYWGQGTLVTVSS
VL: AIQLTQSPSSLSASVGDRVTITCRASQGISSALAWYQQKPGKVPKSLIYDASSLESGVPSRFSGSGSGTDFTLTISSLQPEDFATYYCQQFNSYPITFGQGTRLEIK
notes: Hybridoma antibody from human IgG transgenic mice, parent of MICA.36; also called 19G6 mAb; hybridoma 19G6
As to B2, the EC50 in assay [3] turned out to be 18.5 nM; in assay [4] it was 22 nM; in [5], 8.21 nM; in assay [6], 152 nM; in assay [7], 1.08 nM; in assay [8] it was 9.23 nM. For the same molecule, a half-maximal response in assay [9] (EC50) required 1.83 nM.

B3: 71C2 (antibody, V domains shown)
VH: EVQLVESGGGLVQPGRSLRLSCAASGFTFNNYAMHWVRQAPGKGLEWVSGITWNSDSIGYADSVKGRFTISRDNAKNSLYLQMNSLRAEDTALYYCAKDSVLLWFGGMDVWGQGTTVTVSS
VL: not shown
notes: Hybridoma antibody
Turning to B3, the EC50 in [3] is 80 nM; in assay [4], 232 nM; in assay [5], 10.2 nM; in assay [6], 264 nM; in assay [7], 23.4 nM; in assay [8], 10 nM. The same molecule registered an EC50 in [9] of 9.81 nM.

B4: 24G11 (antibody, V domains shown)
VH: EVQLVQSGAEVKKPGESLKISCKGSGYSFTNYWIGWVRQMPGKGLEWLGIIHPGDSYTRYSPSFQGQVTISADKSISTAYLQWSSLKASDTAIYYCAREGIAATPFDYWGQGTLVTVSS
VL: EIVLTQSPATLSLSPGERATLSCRASQSVSSYLAWFQQKPGQAPRLLIYDASNRATGIPARFSGSGSGTDFTLTISSLEPEDFAVYYCQQRSNWPPTFGQGTKVEIK
notes: also called MICA.54; 24G11 (MICA.54)
As to B4, the “simultaneous binding (0 = no, 1 = yes)” value in [1] and in assay [2] was 1 each time. Moreover, the EC50 is 722 nM in assay [3]; 331 nM in [4]; 497 nM in [5]; 1060 nM in assay [6]; 394 nM in assay [7]; 248 nM in assay [8]. Also, the EC50 in assay [9] was determined as 262 nM.

B5: MICA.2 (antibody, human IgG1, kappa, V domains shown)
VH: EVQLVESGGGLVQPGGSLRLSCAASGFTFSTYSMNWVRQAPGKGLEWVSYISYRSRTIYYADSVKGRFTISRDNARNSLYLQMNSLRDEDTAVYYCARWGYGSGGFDYWGQGTLVTVSS
VL: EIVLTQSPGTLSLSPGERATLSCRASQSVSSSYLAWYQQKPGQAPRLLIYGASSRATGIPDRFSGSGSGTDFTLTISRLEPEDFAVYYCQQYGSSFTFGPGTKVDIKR
notes: 3F5 variable regions on human IgG1f and human kappa constant regions, made in CHO-S cells; also called 3F5; recombinant antibody of 3F5
As to B5, the “simultaneous binding (0 = no, 1 = yes)” value in assay [1] and in [2] was 0 each time. The EC50 worked out at 6.91 nM in [3]; 4.01 nM in assay [4]; 1.56 nM in assay [5]; 5.37 nM in assay [6]; 1.97 nM in assay [7]; 2.14 nM in [8]. In addition, in assay [9], the EC50 came out at 6 nM.

The record behind these values is US20220281980A1 (Bristol-Myers Squibb, published 2022).
